# Experimental data reported in patent publication US7192735.
# B1: o195 (E. coli ORF of unknown function), recombinant from pET28b-o195 (protein)
# chain: MYRIVLGKVSTLSAAPLPPGLREQAPQGPRRERWLAGRALLSHTLSPLPEIIYGEQGKPAFAPEMPLWFNLSHSGDDIALLLSDEGEVGCDIEVIRPRANWRWLANAVFSLGEHAEMDAVHPDQQLEMFWRIWTRKEAIVKQRGGSAWQIVSVDSTYHSSLSVSHCQLENLSLAICTPTPFTLTADSVQWIDSVN
# Molecular target: EntF (E. coli enterobactin synthetase component), apo form, P11454
# Sequence (P11454 whole entry): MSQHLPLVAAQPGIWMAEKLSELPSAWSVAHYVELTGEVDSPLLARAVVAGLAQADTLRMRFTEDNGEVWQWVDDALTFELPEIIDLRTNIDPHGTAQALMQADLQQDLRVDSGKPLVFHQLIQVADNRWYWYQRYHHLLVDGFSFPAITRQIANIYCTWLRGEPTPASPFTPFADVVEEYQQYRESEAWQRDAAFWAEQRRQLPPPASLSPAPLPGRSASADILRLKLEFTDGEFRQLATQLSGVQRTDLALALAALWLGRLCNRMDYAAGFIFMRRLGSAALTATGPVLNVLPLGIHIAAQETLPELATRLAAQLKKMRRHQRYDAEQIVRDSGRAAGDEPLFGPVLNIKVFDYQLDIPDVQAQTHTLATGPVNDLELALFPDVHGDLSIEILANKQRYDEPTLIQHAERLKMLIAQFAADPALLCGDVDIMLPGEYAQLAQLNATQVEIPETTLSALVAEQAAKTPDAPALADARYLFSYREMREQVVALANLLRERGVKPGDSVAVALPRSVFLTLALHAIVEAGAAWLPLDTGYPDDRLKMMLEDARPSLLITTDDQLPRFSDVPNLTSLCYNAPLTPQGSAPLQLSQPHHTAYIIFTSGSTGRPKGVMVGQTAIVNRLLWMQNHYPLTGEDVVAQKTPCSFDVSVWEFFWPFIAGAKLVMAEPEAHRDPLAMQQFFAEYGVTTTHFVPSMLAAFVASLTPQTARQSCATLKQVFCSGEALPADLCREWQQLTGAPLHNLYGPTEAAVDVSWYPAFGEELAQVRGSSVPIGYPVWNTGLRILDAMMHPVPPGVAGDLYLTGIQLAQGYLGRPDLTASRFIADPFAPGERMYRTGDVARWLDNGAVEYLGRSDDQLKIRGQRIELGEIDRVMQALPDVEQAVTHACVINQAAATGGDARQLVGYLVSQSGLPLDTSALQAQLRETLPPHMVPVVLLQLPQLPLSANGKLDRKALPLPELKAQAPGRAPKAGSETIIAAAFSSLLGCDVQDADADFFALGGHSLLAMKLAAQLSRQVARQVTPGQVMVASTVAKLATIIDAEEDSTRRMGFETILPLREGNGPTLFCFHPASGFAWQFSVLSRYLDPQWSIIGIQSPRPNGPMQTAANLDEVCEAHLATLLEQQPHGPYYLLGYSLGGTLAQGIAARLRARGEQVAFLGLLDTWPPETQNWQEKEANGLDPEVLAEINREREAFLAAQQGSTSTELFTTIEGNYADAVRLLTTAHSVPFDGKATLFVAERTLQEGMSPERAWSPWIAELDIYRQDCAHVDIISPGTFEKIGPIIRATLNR
protein,measurement,value
B1,time course of incorporation of radiolabel into EntF,EntF undergoes almost no modification in the presence of 15-fold higher concentrations of ACPS and o195
